Reference: a protein production outcome set (Wang et al. 2014)

Assay: label from the status in PepcDB records
For “MSALRVTSPSVEYVQRPLGLDAAHPRLSWPMASAAPGRRQSAYQVRVASSAAGLSHPDVWDSGKVVSDDSVLVPYAGPPLKPRTRYFWSVRVWDADGGASEWSAPSWWETGLMGASQWSAKWISAPAPLTEAPSLEGSSWIWFPEGEPANSAPAATRWFRRTVDLPDDITGATLAISADNVYAVSVDGAEVARTDLEADNEGWRRPAVIDVLDHVHSGNNTLAVSASNASVGPAGWICVLVLTTASGEKKIFSDASWKSTDHEPADGWREPDFDDSGWPAAKVAAAWGAGPWGRVAPVASAANQLRHEFRLPHKKVSRARLYATALGLYEAHLNGRRVGRDQLAPGWTDYRKRVQYQTYDVTSSVRPGANALAAYVAPGWYAGNVGMFGPHQYGERPALLAQLEVEYADGTSERITSGPDWRAASGPIVSADLLSGETYDARKETAGWTSPGFDDRAWLAVRGADNDVPEQIVAQVDGPVRIAKELPARKVTEPKPGVFVLDLGQNMVGSVRLRVSGDAGTTVRLRHAEVLNPDGTIYTANLRSAAATDTYTLKGQGEETYEPRFTFHGFRYVEVTGFPGKPSTTSVTGRVMHTSAPFTFEFETNVPMLNKLHSNITWGQRGNFLSVPTDTPARDERLGWTGDINVFAPTAAYTMESARFLTKWLVDLRDAQTSDGAFTDVAPAVGNLGNGVAGWGDAGVTVPWALYQAYGDRQVLADALPSVHAWLRYLEKHSDGLLRPADGYGDWLNVSDETPKDVIATAYFAHSADLAARMATELGKDAAPYTDLFTRIRKAFQTAYVASDGKVKGDTQSAYVLTLSMNLVPDALRKAAADRLVALIEAKDWHLSTGFLGTPRLLPVLTDTGHTDVAYRLLHQRTFPSWGYPIDKGSTTMWERWDSIQPDGGFQTPEMNSFNHYAYGSVGEWMYANIAGIAPGRAGYRQVVIRPRPGGEVTSARATFASLHGPVSTRWQQRSGGFVLTCSVPPNTTAEVWIPADHPDRVQHTHGTFVRAEDGCAVFEVGSGSHRFTV”, the protein production was “failed”. For “MSALSRWLLIPPVSARLSERYQGYRRHGASPFSAALGCLWTILAWIVFPLEHPRWQRIRDGHKALYPHINAARPRPLDPARYLIQTLWLVMISSTKERHEPRWRSFARLKDVRGRYHQWMDTLPERVRQKTTHLEKEKELGHLSNGARRFILGVIVTFSLILALICITQPFNPLSQFIFLLLLWGVALLVRRMPGRFSALMLIVLSLTVSCRYIWWRYTSTLNWDDPVSLVCGLILLFAETYAWIVLVLGYFQVVWPLNRQPVPLPKEMSQWPTVDIFVPTYNEDLNVVKNTIYASLGIDWPKDKLNIWILDDGGRESFRQFARHVGVHYIARATHEHAKAGNINNALKHAKGEFVAIFDCDHVPTRSFLQMTMGWFLKEKQLAMMQTPHHFFSPDPFERNLGRFRKTPNEGTLFYGLVQDGNDMWDATFFCGSCAVIRRKPLDEIGGIAVETVTEDAHTSLRLHRRGYTSAYMRIPQSAGLATESLSAHIGQRIRWARGMVQIFRLDNPLFGKGLKLAQRLCYLNAMFHFLSGIPRLIFLTAPLAFLLLHAYIIYAPALMIALFVIPHMVHASLTNSKIQGKYRHSFWSEIYETVLAWYIAPPTLVALINPHKGKFNVTAKGGLVEEKYVDWVISRPYIFLVLLNLLGVAAGVWRYYYGPENETLTVIVSLVWVFYNLVILGGAVAVSVESKQVRRAHRVEIAMPGAIAREDGHLFSCTVHDFSDGGLGIKINGQAQVLEGQKVNLLLKRGQQEYVFPTQVVRVTGNEVGLQLMPLTTKQHIDFVQCTFARADTWALWQDSFPEDKPLESLLDILKLGFRGYRHLAEFAPPSVKVIFRSLTALIAWIVSFIPRRPERQAAIQPSDRVMAQAQQ”, the protein production was “failed”. For “MSANVQEAANAAIEPASFVKVPMPEPPSSLQQLINDWQLIKHREGGYFKETDRSPYTMEVEKPVNGGSGNTEMVTRNQSTLIYYLLTPDSPIGKFHKNINRIIHILQRGKGQYVLVYPDGQVKSFKVGFDYKNGEVSQWVVPGGVFKASFLLPNEEFDNGFLISEVVVPGFDFEDHTFLKGEDELKHLVGPEKAAELAFLA”, the protein production was “not failed”. With “MSAQSSVQPELAVRQWRTPLELGFLGVVWGCSFLFMRVAAPKFGTVVLVEIRLALGALVLLPFLWLARERFPLHRWPMLAAIGVLNSALPFLLFAWGAQHAPAAVGAICNAMTVLFTALIAFLFFGERIGTRRALALLVGFIGVLVLATGKSAGLSVGPAALAGATASLLYGIGYNLVKRHMGDLPPAASAASTLGCSALLLAPLAWWQWPTTPVPAVAWACATALGVVCTGLAFLMYYRLIQRIGPARASTVTYLVPVFGALLAWSLLGEPLTWTMLVAAVLILGSVAFSQRAR” the protein production was “failed”. With “MSAQVPRELLQLREQVRRQPGDFVAWLMLADAELGMGVTAAGETAVQRALALHPGHPEAVARLGRVRWAQQRHAEAATLLQQASDLVPQHPGIALWLGHALEDAGQPEQAAAAYTRAHKLLPDEPYITAQLLNWRRRLCDWRELDSLAAQVRTAVTQGEAAVEPFAFLSEDASAAEQLACARTRAQAIASSVHPLPAATLRSRGTLQLGFVSNGFSAHPTGLLTVALFEALRRRQPDLQVQLFATSPDDGSDIRARLAQATRMHDVTALGHLATAQHIRNQGIDLLFDLRGWGGGGRPEVFALRPAPVQLNWLAYPGTSGAPWMDYVLGDAIALPTWLEPFYSEQVLRLPRAFQPSDTSRTVAEAPSRAQCGLPDHAVVLCCFNNSYKLNPRSMARMLAVLRAVPGSVLWLLSGPGEADARLRAAAQAQGVHAQRLVFMPKLPHPQYLARYRHADLFLDTHPYNAHTTASDALWAGCPVLTTPGQTFAARVAGSLNHRLGLDEMNVADDATFVAKAIELASDAEALRGVRAQLAEQRLRSGLFDMDGFADDLAALLRGIAQRRGWLGV” the protein production was “failed”. For “MSASTSSHRPIKGILKNKSSSGSSVATSGQQSGGTIQDVKRKKSQKWDESSILAAHRATYRDYDLMKANEPGTSYMSVQDNGEDSVRDVEGEDSVRGVEGKEATDASDHSCEVDEQESSEAYMRKILLHKQEKKRQFEMRRRLHYNEELNIKLARQLMWKELQSEDNENEETPQGTNEEKTAAEESEEAPLTGGLQTQSCDP”, the protein production was “failed”. With “MSAVATFSVALANEVATVRLMAEVALLIGPGDVVTLSGDLGAGKTAAARAMIRYLADDDALEVPSPTFTLVQTYDLPPYPLLHADLYRVEDPSELEEIGLSPLPDGTVALIEWPERAGAALPEDRIDIALSHRPALGPSARAAEITGHGKAVKQVERLAALRSFIETAGYADAERRHMPGDASTRSYARLQRGAESVILMNAPRRPDGPALYAGKSYSAAVHLAEDVRPFVAIGQGLRERGFSAPAIHHADLDAGFLITEDLGRIGFVEGDPPAPVVARYQAATDMLAALHAKPLPDHLPLSTRESYAVPTFDEAAMMIEVGLMPEWYLPDRGAPPSEALRVEFVALWRKLLAGIATAPRTWVLRDYHSPNLIWLEDRPGIERVGVIDFQDTVLGPAAYDVVSLLQDARIDVPEAAELSLLGRYVKARLAADPEFDAPGFARLYAVMSAQRNTRLLGTFARLNRRDGKPQYLKHQPRVWAYLARSLAHPALAEVRAWYRDHVPPPL” the protein production was “failed”. For “MSAWFELKQYGSGACRFLLKTKEAQTMLQSDRYPCRDSAEAALGLFRAHCASPERYVKKISSGGKPFFKLKSGKEVILVSHLYDSEATLESAISAIASAGTTERVEHIQL”, the protein production was “failed”. With “MSAYEAVRIRLDPTPRQTRLLESHAGGARFAYNLMLAHVRRQISLGEKPDWTLYAMRRWWNEWKDEIAPWWRENSKEAYGSAFEWLSQALRNWSDSRKGRRAGRRVGWPKYKSKRSSVPRFAYTTGSFGLIEDDPKALKLPRIGRVHCMENATERVHGRRIVRMTVSRHAGFWYAALTVERPTESVPAKNRKQKNRNRQVGVDLGVRTLATLSDGTTFPNPRNYVRTQRKLRHAQQSLSRRDRGMSHGCGSKRYNRALERVRRIHARIAAQRADNIGKLTTWLADNYSDISIEDLNVQGMSHNRRLAKHVLDADFREFRRQLEYKTARAGTRLHVIDRWYPSSKTCSNCGTVKAKLSLSERVYHCGKCGLVIDRDVNAAINIQVAGSAPETLNARGGSVRQTRLECGTMRHPAKREPSGGDSRVRLGAGLGNEAMQMTSL” the protein production was “failed”. With “MSAYIAPSQIAQRQLEYFNGKHVLVAGEVEDMFPLELTAHCESVEVFTSNYSYFRQIRHSDKIKSHFGSEFDVETQADMLLLYWPKAKAEAEYLLAMLMAKLGVNTEIVVVGENRSGVKSIEKMFKEYGPVNKYDSARRCSFYWGNCLNEPKPFNQEEWFKSYTVTLGEQSLTVKSLPGVFSHGEFDLGSRLLLETLPNLSGKVLDFGCGAGVLGAFMAKANPEIAIEMCDINAYAITSSQATLEANGLSGRVFASDIYSDTANDYRFIISNPPFHSGLDTNYNAAETLLGHAPQHLSNHGEMIIVANSFLKYPPIIENAFNNCETLNKTNKFSIYYAKKS” the protein production was “failed”. For “MSAYIIETLIKILILVAVFSALGGFATYIERKVLAYFQRRLGPCYVGPFGLLQVAADGIKLFTKEDIIPQGANKFIFTLAPIIAMVSAFVSMAPIPFFPNFTLFGYEIKPLISDINIGFLFFLAVGSAGIYAPILAGLASNNKYSLIGSARATIQLLSFEVVSTLTILAPLMVVGSLSLVEINHYQSGGFLDWLVFKQPLAFVLFLIASYAELNRTPFDLLEHEAEIVAGYCTEYSGLKWGMFFLAEYAHLFAFSFVISIVFFGGFNAWGFIPGGIAILIKAGFFVFLSMWVRATYPHVRPDQLMDMCWKIMLPLALLNIVLTGIIILI”, the protein production was “failed”. For “MSCGKPQETYSTSSILTREQFEIQHQEEDTIGEQVIFIDGVAYNSRGFRVCGAPNQRGGFCARFGQCPFHKDKVTTFKMSEETVSEFPRQLLTESCNLLQNNERKFKNAWKLDEHHRFLVALKKFGHGNWRQIADYVETRSASQCQSHAQKYYLRKRKLASNANLKRSIFDLIDEDTLSVEIGEEDTWNIIQKCPSKEAQGSVRSRSKTLQRMSTDSSVESYPIRELSTVDSELSTLQTYKQASFFIRIFRNGVFSHGVDLELPNSLASFFIKAAQLLDMSVATKAYTRSGFEISSLHEVCPGDILWISSGEEFIFPSPVQYIET”, the protein production was “not failed”. In the case of “MSDAAISGRREQGWLAGLGNWIPARFRRDIPVVPVVRLSGTIGAVTPLRPGLTLAGVAKLLDRAFSTRNAKAVALAINSPGGSPVQSRLIYLRIRALAAEKKLPVYAFVEDVAASGGYMIACAADEIYCDPSSILGSIGVVGGGFGFQELIRKIGVERRLYTAGERKAQLDPFLPEDPQEVARLKVLQQEIHALFIALVKESRGTRLKGEESKLFTGEYWAGATSVSLGLADSIGDLRAVLRGKFGDKVRTPLISPPTGLLANLSRKSSGAGASLDGVAALPESMITALETRAIWAKYGF”, the protein production is reported as “failed”. With “MSDEWKSETPKANDDKSWKLLEKAVLAGVQEQRRARRWGIFFKSLTFIYLFVVLLAFSPFGSLEKSASRSGSHTALIEVKGMIADDEPASADNIVTALRAAFKDEGTKGIVLRINSPGGSPVQSGYIYDEIRRLRGEHPNVKVYAVISDLGASGAYYIASAADQIYADKASLVGSIGVTAASFGFVGTMEKLGVERRVYTSGEHKSFLDPFQPQKPEETQFWQQVLDTTHKQFIDSVKKGRGDRLKVEGHPELFSGLVWSGEQALQLGLIDGLGNASYVAREVVKEKKIEDYTVQESPFDRFAKKFGASVAERLALWMGWQGPVLRLEHHHHHH” the protein production was “failed”. For “MSDIELLETLAGTDQPRVMATIIHVEGSSYRKEGAMMLFQEDGTQVGLLSGGCLETDLTIKAQKVWQEQLPRTVVYDLSSEDDLSWGQGSGCNGTISVLLEPVDLKLRQHLKRVYDYLCAGKSVFHVKKLSTSGAVLEYAFILDESVYFGEWHSGHPVEWIRKIDENEEPLMFTHIYSPKERLIIFGAGPDVPPLVTFASNVGFYTVVTDWRPNQCEKHFFPDADEIIVDFPADFLRKFLIRPDDFVLIMTHHFQKDQEILHFLLEKELRYIGILGSKERTRRLLQNRKPPDHLYSPVGLSIDAQGPEEIAISIVAQLIQLIRSRKQASSPFSYLFQPESCKH”, the protein production was “not failed”. For “MSDIPSDLHYTAEHEWIRRSGDDTVRVGITDYAQSALGDVVFVQLPVIGTAVTAGETFGEVESTKSVSDLYAPISGKVSEVNSDLDGTPQLVNSDPYGAGWLLDIQVDSSDVAALESALTTLLDAEAYRGTLTE”, the protein production was “not failed”.
